One assay deals with T1, MBP-Jacob-45-228-180A (UniProt Q9EPI6 45-228, S180A).
T1 sequence (looked up): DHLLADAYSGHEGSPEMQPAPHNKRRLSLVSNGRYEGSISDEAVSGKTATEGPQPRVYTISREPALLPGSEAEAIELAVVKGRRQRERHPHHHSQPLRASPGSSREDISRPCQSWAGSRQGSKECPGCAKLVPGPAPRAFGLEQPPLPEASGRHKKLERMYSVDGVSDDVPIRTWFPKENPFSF
Put plainly: pull-down.

A further assay addresses T2, MBP-Jacob-45-228 (UniProt Q9EPI6 45-228).
T2 sequence (looked up): T1 sequence (looked up) with A136S
Put plainly: pull-down.

The target in assay [1] is T3, Jacob (recombinant protein used for ITC) (UniProt Q9EPI6 1-532).
T3 sequence (looked up): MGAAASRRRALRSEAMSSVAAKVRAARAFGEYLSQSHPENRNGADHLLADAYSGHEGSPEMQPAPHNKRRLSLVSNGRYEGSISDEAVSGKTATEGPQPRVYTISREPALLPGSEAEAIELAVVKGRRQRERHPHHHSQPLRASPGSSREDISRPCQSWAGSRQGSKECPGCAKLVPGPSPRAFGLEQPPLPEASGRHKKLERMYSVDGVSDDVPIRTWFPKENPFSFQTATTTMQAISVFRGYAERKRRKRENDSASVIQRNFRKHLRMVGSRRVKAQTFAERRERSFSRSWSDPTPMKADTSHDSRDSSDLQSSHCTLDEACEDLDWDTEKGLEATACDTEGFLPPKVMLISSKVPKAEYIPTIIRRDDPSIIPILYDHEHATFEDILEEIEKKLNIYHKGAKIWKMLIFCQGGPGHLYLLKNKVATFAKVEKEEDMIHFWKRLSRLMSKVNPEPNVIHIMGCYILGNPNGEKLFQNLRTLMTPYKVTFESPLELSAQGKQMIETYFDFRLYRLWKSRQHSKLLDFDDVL
Put plainly: ITC. For orientation: ITC needs no label: the signal is the heat of the interaction.

Positions count from the first letter of the chain named.

B1: GST-LMO4 (natural protein, UniProt P61968 1-165, looked up)
chain: MVNPGSSSQPPPVTAGSLSWKRCAGCGGKIADRFLLYAMDSYWHSRCLKCSCCQAQLGDIGTSCYTKSGMILCRNDYIRLFGNSGACSACGQSIPASELVMRAQGNVYHLKCFTCSTCRNRLVPGDRFHYINGSLFCEHDRPTALINGHLNSLQSNPLLPDQKVC
With B1, the binding result with MBP-Jacob-45-228-180A and in the assay with MBP-Jacob-45-228 was “binds” throughout. In addition, the Kd (in general, the concentration at which binding is half-saturated) in assay [1] is 370 nM.
